Experimental data as given in patent EP4714971A1 (Shanghai Hansoh Biomedical Co., Ltd., dated 2024).
Changes are numbered by the printed parent chain.

B1: cAb3006 (antibody, V domains shown)
VH: QVQLQQSGAELARPGASVTLSCKASGYTFTDYEMHWVKETPVDGLEWIGGIDPETDNTVYNQKFKVKAILTEDKSSRIAYMELRSLTSEDSAVYYCTRGDWYFDVWGTGTTVTVSS
VL: DIVMSQSPSSQAVSVGEKVTMSCKSSQSLLNSRTRENYLAWYQQKAGQSPKLLIYWASTRDSGVPDRFTGSGSGTDFTLTINSVQAEDLAVYYCKQSYNLFTFGSGTKLEIK
B2: cAb3003 (antibody, V domains shown)
VH: B1 VH with A12V, D31G, E39Q, D43H, V66G, R77S, I78T, S85R, V105I
VL: B1 VL with M4L, A46P, D61E, N82S, K95Q, K108I
B3: cAb3005 (antibody, V domains shown)
VH: B1 VH with T28K, D43N, D56E, I78T
VL: B1 VL with D76A
B4: cAb3009 (antibody, V domains shown)
VH: QVQLQQSGAELVRPGASVTLSCKASGYTFTDYEMHWVRQTPVHGLEWIGGIDPESDNTVYNQKFKGKVTLTEDKSSSTAYMEFRSLTSEDSAVYYCTRGDWYFDVWGTGTTVTVSS
VL: B1 VL with S22T, A46P, D61E, T75A, N82S, K95G
B5: cAb3014 (antibody, V domains shown)
VH: QVQLQQPGAELVKPGASVKLSCKASGYTFSIYWMHWVKQRPGQGLEWIGMIHPNSGSTNYNEKFKSKATLTVDKSSSTAYMQLSSLTSEDSAVYYCARGGNYVAMDYWGQGTSVTVSS
VL: QIVLTQSPAIMSASLGERVTMTCTASSSVSSSYLHWYQQKPGSSPKLWIYSTSNLASGVPARFSGSGSGTSYSLTISSMEAEDAATYYCHQYHRSLTFGSGTKLEIK
B6: cAb3034 (antibody, V domains shown)
VH: QVQLQQSGAELARPGASVKMSCKASGYTFTSYTMHWVKQRPGQGLEWIGYINPRSDYTKYNQKVKDKATLTADKSSSTAYMQLSSLTSEDSAVYYCARGGLGLDYWGQGTTLTVSS
VL: DIQMTQSPSSLSASLGERVSLTCRASQEISGYLSWLQQTPDGTIKRLIYAASTLHSGVPKRFSGSRSGSDYSLTISSLESEDFAGYYCLQYASYPYTFGGGTKLEIK
B7: cAb3046 (antibody, V domains shown)
VH: QVQLQQSGAELARPGASVKMSCKASGYTFTSYTMHWVKQRPGQGLEWIGYINPSSDYTKYNQKFKGKATMTADKSSSTAYMQLSSLTSEDSAVYYCGRGLVPFAYWGQGTLVTVSA
VL: B6 VL with S34I, T39K, H55D, F62V, G85D, Y96L, I106L
B8: cAb3056 (antibody, V domains shown)
VH: QVQLQQSGPELMKPGASVKISCKASGYTFTDYYINWMKQRPGQGLEWIGWIFPGSDNPYYNEMFKDKATVSVDKSSSAVFMLLTSLTSEDSAVYFCARGRYYGLYTMDYWGQGTSVTVSS
VL: DIQMTQTTSSLSASLGDRVTISCRASQDIRNYLNWYQQKADGTVKFLIYYTSRLHSGVPSRFSGSGSGTDFSLTISNLEQEDVATYFCQQGNTLPWTFGGGTKVEIK
B9: cAb3031 (antibody, V domains shown)
VH: DVQLQESGPGLVKPSQSLSLTCSVTGQSITSGYFWNWIRQLPGNKLEWMGHIRYDGNNNYNPSLKNRVSITRDTSKNQFFLKLNSVTTEDTATYYCARWLLRYYAMDSWGQGTSVTVSS
VL: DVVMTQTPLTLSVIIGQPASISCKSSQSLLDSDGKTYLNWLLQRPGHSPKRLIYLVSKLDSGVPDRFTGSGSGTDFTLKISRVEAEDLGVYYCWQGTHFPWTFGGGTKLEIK
B10: cAb314 (Fc fusion)
VHH: HVQLVESGGGSVQAGGSLRLSCAVSGFTSSRGWMAWFRQAPGKEREGVAVIGRRSGDIYYADSLKGRFTISHDSTENTLYLQMNNLKPEDTATYYCAVGDQAGHVLTSSPYRYWGQGTQVTVSS
notes: VHH-hFc expressed in 293 cells; Parent of PR0071; also called chimeric nanobody; camel-derived SEZ6 chimeric antibody; not shown: The human Fc (hFc) of the VHH-hFc construct
B11: cAb025 (Fc fusion)
VHH: EVQLVESGGGSVQPGGSLRLSCEASGLTYNKDCMAWFRQAPGKEREGVAIINGVGRTRYADSVKGRFTISKDNAKNTLYLQMNNLKPEDTAMYYCAAQRASSSCGSLSRAWYDYWGRGTQVTVSS
notes: VHH-hFc expressed in 293 cells; Parent of PR0069; also called chimeric nanobody; camel-derived SEZ6 chimeric antibody; not shown: The human Fc (hFc) of the VHH-hFc construct
B12: PR3121 (antibody, human IgG1, kappa, V domains shown)
VH: EVQLVQSGAEVKKPGSSVKVSCKASGYTFSIYWMHWVRQAPGQGLEWIGMIHPNSGSTNYNEKFKSRATLTVDKSTSTAYMELSSLRSEDTAVYYCARGGNYVAMDYWGQGTLVTVSS
VL: DIQMTQSPSSLSASVGDRVTITCTASSSVSSSYLHWYQQKPGKAPKLLIYSTSNLASGVPSRFSGSGSGTDFTLTISSLQPEDFATYYCHQYHRSLTFGGGTKVEIKR
notes: Humanized, human IgG1, kappa; also called humanized antibody of cAb3014
B13: PR3123 (antibody, human IgG1, kappa, V domains shown)
VH: B12 VH
VL: B12 VL with M4L, I21M, A44S, L48W, F72Y
notes: Humanized, human IgG1, kappa; Only the order of listing separates it from PR3121; also called humanized antibody of cAb3014
B14: PR3132 (antibody, human IgG1, kappa, V domains shown)
VH: EVQLVQSGAEVKKPGASVKISCKASGYTFTDYYINWMRQAPGQGLEWIGWIFPGSDNPYYNEMFKDRVTVTVDKSTSTVYMELSSLRSEDTAVYFCARGRYYGLYTMDYWGQGTLVTVSS
VL: DIQMTQSPSSLSASVGDRVTITCRASQDIRNYLNWYQQKPGKAPKFLIYYTSRLHSGVPSRFSGSGSGTDFTLTISSLQPEDFATYYCQQGNTLPWTFGGGTKVEIKR
notes: Humanized, human IgG1, kappa; also called humanized antibody of cAb3056

Target: T1, cynomolgus monkey SEZ6 expressed on stably transfected CHO-K1 cells (cynomolgus monkey, UniProt Q53EL9 20-994 (human entry))
T1 construct: also called CHO-cynoSEZ6; monkey SEZ6 on the cell membrane
T1 chain: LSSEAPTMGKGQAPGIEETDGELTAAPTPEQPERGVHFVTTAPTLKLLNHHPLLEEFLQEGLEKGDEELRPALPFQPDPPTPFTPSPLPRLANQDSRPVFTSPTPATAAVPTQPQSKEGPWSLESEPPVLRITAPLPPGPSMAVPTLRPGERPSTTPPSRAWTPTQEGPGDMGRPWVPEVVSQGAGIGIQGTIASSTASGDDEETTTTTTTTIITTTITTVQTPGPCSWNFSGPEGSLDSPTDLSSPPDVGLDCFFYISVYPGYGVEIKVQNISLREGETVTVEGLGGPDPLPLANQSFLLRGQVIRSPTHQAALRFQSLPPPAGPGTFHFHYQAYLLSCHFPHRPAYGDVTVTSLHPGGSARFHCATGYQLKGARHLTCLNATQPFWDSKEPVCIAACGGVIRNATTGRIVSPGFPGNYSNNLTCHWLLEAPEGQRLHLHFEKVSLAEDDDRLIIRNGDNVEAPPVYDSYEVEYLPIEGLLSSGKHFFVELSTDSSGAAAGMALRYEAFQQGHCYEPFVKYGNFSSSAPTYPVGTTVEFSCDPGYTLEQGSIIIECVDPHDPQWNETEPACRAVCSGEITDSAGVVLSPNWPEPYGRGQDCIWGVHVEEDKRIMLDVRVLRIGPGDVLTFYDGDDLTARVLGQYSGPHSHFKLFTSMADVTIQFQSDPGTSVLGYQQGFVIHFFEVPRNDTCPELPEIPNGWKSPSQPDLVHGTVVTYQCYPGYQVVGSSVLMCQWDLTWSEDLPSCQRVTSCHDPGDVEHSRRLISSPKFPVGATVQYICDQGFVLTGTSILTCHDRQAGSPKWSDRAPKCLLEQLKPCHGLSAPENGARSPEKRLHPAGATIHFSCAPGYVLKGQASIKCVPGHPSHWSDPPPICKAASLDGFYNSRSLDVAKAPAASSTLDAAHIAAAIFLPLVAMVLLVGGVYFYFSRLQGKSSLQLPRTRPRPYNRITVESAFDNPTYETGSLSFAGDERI
Assay: flow cytometry on CHO-K1 cells expressing cynomolgus monkey SEZ6
For B1, the EC50 was 0.41 nM and the MFImax was 15000.
B2 gave an EC50 of 0.42 nM and an MFImax of 14300.
B3 showed an EC50 of 0.41 nM and an MFImax of 14700.
B4 was tested, and the EC50 was 0.43 nM and the MFImax was 15600.
B5 showed an EC50 of 0.65 nM and an MFImax of 13400.
Binder B6 has an EC50 of 0.37 nM and an MFImax of 17300.
Binder B7 has an EC50 of 0.48 nM and an MFImax of 16200.
B8 was tested, and the EC50 was 0.95 nM and the MFImax was 14600.
B9 showed an EC50 of 0.54 nM and an MFImax of 15200.

The binders below were run against T2, human SEZ6 expressed on stably transfected CHO-K1 cells (human, UniProt Q53EL9 20-994) (assay: flow cytometry on CHO-K1 cells expressing human SEZ6).
T2 construct: also called CHO-SEZ6; hSEZ6
T2 sequence: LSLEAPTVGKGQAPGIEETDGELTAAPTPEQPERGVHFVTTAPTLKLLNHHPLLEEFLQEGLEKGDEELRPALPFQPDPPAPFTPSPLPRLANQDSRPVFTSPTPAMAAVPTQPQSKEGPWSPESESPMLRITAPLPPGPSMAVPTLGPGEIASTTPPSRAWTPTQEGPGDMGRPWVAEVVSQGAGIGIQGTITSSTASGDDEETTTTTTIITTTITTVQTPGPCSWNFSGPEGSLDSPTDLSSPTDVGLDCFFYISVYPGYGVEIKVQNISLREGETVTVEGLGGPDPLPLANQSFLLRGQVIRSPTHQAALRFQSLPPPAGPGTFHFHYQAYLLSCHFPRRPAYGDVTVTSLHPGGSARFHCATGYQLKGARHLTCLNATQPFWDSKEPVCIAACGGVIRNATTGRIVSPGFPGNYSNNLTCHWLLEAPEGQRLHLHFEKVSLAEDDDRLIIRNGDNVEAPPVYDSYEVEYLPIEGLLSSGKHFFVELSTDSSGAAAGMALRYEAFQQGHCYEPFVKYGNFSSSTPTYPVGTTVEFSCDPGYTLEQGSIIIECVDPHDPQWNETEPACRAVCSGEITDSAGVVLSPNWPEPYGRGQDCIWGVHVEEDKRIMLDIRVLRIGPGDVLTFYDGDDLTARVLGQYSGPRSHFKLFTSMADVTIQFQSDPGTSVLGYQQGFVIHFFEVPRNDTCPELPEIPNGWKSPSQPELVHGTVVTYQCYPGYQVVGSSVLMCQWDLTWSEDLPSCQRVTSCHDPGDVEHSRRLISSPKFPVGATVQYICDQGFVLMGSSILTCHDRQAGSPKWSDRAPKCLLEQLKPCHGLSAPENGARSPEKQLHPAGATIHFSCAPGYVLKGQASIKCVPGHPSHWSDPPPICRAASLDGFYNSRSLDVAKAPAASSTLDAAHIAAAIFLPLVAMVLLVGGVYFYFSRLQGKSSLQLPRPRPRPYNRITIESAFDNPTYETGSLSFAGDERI
Work on B10 yielded an EC50 of 0.38 nM and an MFImax of 8480.
Binder B11 has an EC50 of 0.23 nM and an MFImax of 6600.

Target: T2, human SEZ6 expressed on stably …
Assay: as above
Remark: another data set of the same source
Binder B12 has an EC50 of 0.45 nM and an MFImax of 1020.
For B13, the EC50 was 0.56 nM and the MFImax was 966.
Binder B14 has an EC50 of 1.72 nM and an MFImax of 1210.

Target: T2, human SEZ6 expressed on stably …
Assay: as above
Remark: another data set of the same source
With B1 the EC50 was 0.35 nM and the MFImax was 4830.
For B2, the EC50 was 0.68 nM and the MFImax was 5110.
With B3 the EC50 was 0.52 nM and the MFImax was 4920.
In the case of B4, the EC50 is reported as 0.81 nM and the MFImax is reported as 5420.
Work on B5 yielded an EC50 of 0.85 nM and an MFImax of 3030.
For B6, the EC50 was 0.13 nM and the MFImax was 10100.
In the case of B7, the EC50 is reported as 0.06 nM and the MFImax is reported as 5180.
With B8 the EC50 was 0.42 nM and the MFImax was 6560.
B9 was tested, and the EC50 was 0.42 nM and the MFImax was 5180.
